Source: patent publication US8440629B2, “Cyclic receptor-associated protein (RAP) peptides” (Raptor Pharmaceuticals Inc., priority 2007, dated 2013)

T1: rhLRP1 cluster II (Homo sapiens, UniProt Q07954)
T1 construct: rhLRP1 cluster II (aa 786-1165, C-terminal Fc, 1 μg); purchased R&D Systems; host or cells: NS0
T1 sequence (Q07954 786-1165): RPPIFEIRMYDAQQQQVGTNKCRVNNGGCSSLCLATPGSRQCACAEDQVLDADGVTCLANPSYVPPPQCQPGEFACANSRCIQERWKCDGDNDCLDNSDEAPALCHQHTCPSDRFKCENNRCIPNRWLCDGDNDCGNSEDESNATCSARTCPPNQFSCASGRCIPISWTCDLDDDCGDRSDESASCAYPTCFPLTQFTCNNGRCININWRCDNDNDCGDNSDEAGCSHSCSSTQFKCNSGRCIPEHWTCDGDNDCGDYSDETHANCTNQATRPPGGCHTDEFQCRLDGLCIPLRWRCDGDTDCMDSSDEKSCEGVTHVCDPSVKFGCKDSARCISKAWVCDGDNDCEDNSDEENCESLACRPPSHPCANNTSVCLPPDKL


Legend:
rhLRP1 cluster II = biological target: T1, rhLRP1 cluster II; assay: Solid phase binding assay of RAP peptides; settings: for Kd: calcium-dependent binding, EDTA-subtracted, read-out: Kd / binding affinity
Description: Solid phase binding assays were carried out as follows. Recombinant murine VLDLR ectodomain (aa 1-798, C-terminal hexahistidine, 1 μg) or rhLRP1 cluster II (aa 786-1165, C-terminal Fc, 1 μg) were bound to Nunc Maxisorp™ 96-well plates in TBS pH 8 supplemented with 5 mM CaCl2 (TBSC) overnight at 4° C. Wells were washed with TBSC and then blocked with TBSC containing 2% BSA. Peptides were then incubated with the immobilized receptor at a range of concentrations for 2 hours in the above blocking buffer supplemented with 0.05% Tween-20 at room temperature. Identical binding reactions were done in the presence of 50 mM EDTA to provide a measure of non-specific binding. Control wells contained no added peptide. Additional controls established absence of cross-reactivity between antibodies and receptors. Wells were washed with TBSTC and bound peptides detected with streptavidin-HRP (Pierce) or polyclonal anti-RAP (1:1,000, Raptor Pharmaceutical). Binding of the anti-RAP polyclonal antibody to test peptides was qualitatively confirmed by Western blotting (data not shown). Excess streptavidin-HRP or primary antibody was removed and wells washed before incubation with the secondary antibody, when necessary, HRP-conjugated goat anti rabbit IgG (Bio-Rad). Color was developed using TMB reagents (BioRad). Absorption at 450 nm was measured with a microplate spectrophotometer (Molecular Devices). Absorption obtained in the presence of EDTA was subtracted from absorption obtained in the presence of calcium prior to analysis. Data were plotted and Kd values derived by non-linear regression with the assumption of single-site binding (GraphPad Prism).
The binding affinity of the peptides for LRP1 and VLDLR, another receptor in the LDLR family, was measured as follows. NS0-expressed and purified hrLRP1 or mVLDLR (R&D Systems) were use to coat wells in 96-well plates. Various dilutions of the test peptides were incubated with the immobilized receptors in the presence and absence of 50 mM EDTA in triplicate. Bound peptides were detected with streptavidin-HRP after extensive washing. Binding values measured in the presence of EDTA were subtracted from values measured in the absence of EDTA in order to determine calcium-dependent binding levels. Corrected values were plotted and fitted by non-linear regression with the assumption of a single-binding site using GraphPad Prism.

LRP2 CR89 = biological target: T2, LRP2 CR89 (Homo sapiens, UniProt P98164); assay: Solid phase binding assay; settings: solid-phase assay
T2 construct: two CR pairs from LRP2 (CR89, CR3435); made in house; host or cells: E. coli BL21(DE3) CodonPlus-RIPL, pET30(+)a
T2 sequence (P98164 1022-1105 limits assumed): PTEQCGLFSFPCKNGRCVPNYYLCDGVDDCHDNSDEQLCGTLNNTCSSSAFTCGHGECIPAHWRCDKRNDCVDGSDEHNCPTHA
Description: (§1) All expression constructs were sequenced to verify insert sequences and the junctions with the expression vector. Each plasmid was then used to transform BL21(DE3) CodonPlus-RIPL™ cells (Stratagene). Expression of the CR proteins was induced in logarithmic growth-phase cells grown in LB supplemented with 34 μg/mL chloramphenicol, 12.5 μg/mL tetracycline and 15 μg/mL kanamycin by addition of 2 mM IPTG, followed by reduction in incubator temperature to 32° C. and incubation for 4 hours with agitation at […]. Cells were pelleted and resuspended, at 3.5% of the initial culture volume in 10 mM Tris-HCl pH 8, 100 mM NaH2PO4, 8M Urea. Resuspended cells were then frozen in liquid nitrogen, rapidly thawed to 37° C. and sonicated for 10 seconds at an amplitude setting of 60 using a Cole-Parmer CP-130 ultrasonic processor connected to a 3 mm probe. This procedure was repeated three times to effect complete lysis of the cells. Lysates were clarified by spinning twice at 10,000×g in a Sorvall RC-5 centrifuge for 20 minutes at 15° C. Ni-NTA columns (Qiagen Superflow™, 1.5 mL packed bed) were used to purify the CR proteins. Briefly, the resin was equilibrated with two column volumes of lysis buffer. The clarified lysate was then supplemented to 20 mM with imidazole and incubated with the equilibrated Ni-NTA resin overnight at 4° C. The flow-through was discarded. Columns were washed once with one column volume of lysis buffer and then three times with one column volume of TBS pH 8 supplemented with 20 mM imidazole. CR-loaded beads were then removed from the column and CR proteins eluted by incubating at room temperature for 30 minutes with one column volume of the same buffer containing 200 mM imidazole. This step was repeated once and the eluates pooled. Eluted CR protein solutions were then supplemented to 2 M urea, 10 mM CaCl2 and 5 mM DTT. Purified, denatured CR protein solutions were transferred to 3,500 MWCO Slide-A-Lyzer™ (Pierce) cassettes and sequentially dialyzed against a 200-fold excess of 50 mM Tris-HCl pH 8.5, 10 mM CaCl2, 1 mM reduced glutathione, 0.5 mM oxidized glutathione at room temperature overnight and then against TBS supplemented with 5 mM CaCl2 at 4° C. overnight. Protein concentrations were determined by Bradford assay and purity confirmed by SDS-PAGE with Coomassie Brilliant Blue staining.
(§2) Purified, refolded CR protein (1 μg) was bound to Nunc Maxisorp™ 96-well plates in TBS pH 8 supplemented with 5 mM CaCl2 (TBSC) overnight at 4° C. Wells were washed with TBSC and then blocked with TBSC containing 2% bovine serum albumin (BSA). RAP ligands were then incubated with the immobilized receptor at a range of concentrations for 2 hours in the above blocking buffer supplemented with 0.05% Tween-20 at room temperature. Control wells contained no added ligand. As an additional control, to determine whether the absence of calcium affected binding, 10 mM EGTA was included in the incubation medium for some samples. Wells were washed with TBSTC and bound ligands detected with polyclonal anti-RAP (BP41/42, 1:1,000, BioMarin). Excess primary antibody was removed and wells washed before incubation with the secondary antibody, HRP-conjugated goat anti rabbit IgG (Bio-Rad). After washing, TMB substrate solutions (Bio-Rad) were added to detect HRP. Color development was stopped with 1N HCl. Absorption at 450 nm was measured with a microplate spectrophotometer (Molecular Devices). Data were plotted and Kd values derived by non-linear regression with the assumption of single-site binding (GraphPad Prism).

LRP1 CR3-5 = biological target: T3, LRP1 CR3-5 (Homo sapiens, UniProt Q07954); assay: Solid phase binding assay; settings: solid-phase assay
T3 construct: made in house; host or cells: E. coli BL21(DE3) CodonPlus-RIPL, pET30(+)a
Description: as §1, §2
From the large number of CR pairs with unique combinations of amino acids at A, C, A′ and C′ within the calcium-binding loop of each CR, CR pairs or triplets were selected to test their binding to RAP d3 (FIG. 2). An additional pair derived from the FDC-8D6 protein was tested, designated 8D6 CR12, having the sequence ([…]) (SEQ ID NO: 91). […]

Molecule | Kd (rhLRP1 cluster II) [nM] | affinity (in words) (rhLRP1 cluster II) | binding to LRP2 CR89 (in words) (LRP2 CR89) | binding to LRP1 CR3-5 (in words) (LRP1 CR3-5)
mRAp-8c: cyclic RAP peptide, amino acids 246 to 312, E246C, L247G, L311G, S312C (SEQ ID NO: 100) (protein, chains of the parent or of the whole protein) CGKHFEAKIEKHNHYQKQLEIAHEKLRHAESVGDGERVSRSREKHALLEGRTKELGYTVKKHLQDGC | 4 to 6 | – | – | –
Heptide: cyclic RAP peptide, amino acids 246 to 313, E246C, L247G, G280A, L311A, S312C (SEQ ID NO: 103) (protein, chains of the parent or of the whole protein) CGKHFEAKIEKHNHYQKQLEIAHEKLRHAESVGDAERVSRSREKHALLEGRTKELGYTVKKHLQDACG | ~3.5 | – | – | –
mRAPcko: mRAPc with the mutations K256A and K270E (N-terminal biotin; intramolecular disulfide bond between C241 and C315 (otherwise identical to mRAPc), mRAPc with the mutations K256A and K270E) peptide: GGSGGCGFREELKHFEAKIEAHNHYQKQLEIAHEELRHAESVGDGERVSRSREKHALLEGRTKELGYTVKKHLQDLSGGC | – | no measurable affinity | – | –
mRAP: linearized control of mRAPc, both cysteines substituted with serines (SEQ ID NO: 107) (peptide) SGFREELKHFEAKIEKHNHYQKQLEIAHEKLRHAESVGDGERVSRSREKHALLEGRTKELGYTVKKHLQDLSGGS | – | no measurable affinity | – | –
MegaRAP1 d3 T213S: MegaRAP1 d3 revertant T213S (protein) LDRLRRVSHQGYSTEAKFEEPRVIDLWDLAQSANLTDKELEAFREELKYFKAKIEAHNHYQKQLEIAHEELRHAESVGDGERVSRSREKHALLEGRTKELGYTVKKHLQDLSGRISRAR | – | – | slightly improved affinities | unable to detectably bind
MegaRAP1 d3 Y249H: MegaRAP1 d3 revertant Y249H (protein) LDRLRRVSHQGYTTEAKFEEPRVIDLWDLAQSANLTDKELEAFREELKHFKAKIEAHNHYQKQLEIAHEELRHAESVGDGERVSRSREKHALLEGRTKELGYTVKKHLQDLSGRISRAR | – | – | failed to bind | failed to bind
MegaRAP1 d3 K217E: MegaRAP1 d3 revertant K217E (protein) LDRLRRVSHQGYTTEAEFEEPRVIDLWDLAQSANLTDKELEAFREELKYFKAKIEAHNHYQKQLEIAHEELRHAESVGDGERVSRSREKHALLEGRTKELGYTVKKHLQDLSGRISRAR | – | – | slightly improved affinities | unable to detectably bind
MegaRAP1 d3 K251E: MegaRAP1 d3 revertant K251E (protein) LDRLRRVSHQGYTTEAKFEEPRVIDLWDLAQSANLTDKELEAFREELKYFEAKIEAHNHYQKQLEIAHEELRHAESVGDGERVSRSREKHALLEGRTKELGYTVKKHLQDLSGRISRAR | – | – | failed to bind | failed to bind
MegaRAP1 d3 A256K: MegaRAP1 d3 revertant A256K (protein) LDRLRRVSHQGYTTEAKFEEPRVIDLWDLAQSANLTDKELEAFREELKYFKAKIEKHNHYQKQLEIAHEELRHAESVGDGERVSRSREKHALLEGRTKELGYTVKKHLQDLSGRISRAR | – | – | failed to bind | failed to bind
RAP d3 K270E: RAP d3 forward mutant K270E (protein) LDRLRRVSHQGYSTEAEFEEPRVIDLWDLAQSANLTDKELEAFREELKHFEAKIEKHNHYQKQLEIAHEELRHAESVGDGERVSRSREKHALLEGRTKELGYTVKKHLQDLSGRISRAR | – | – | – | failed to measurably bind
